From the DeepSol protein solubility set

Assay: soluble on expression in E. coli; label from the status in PepcDB or PDB records

Sequence	soluble on expression in E. coli
MSLDWDSVHVPGPHAMTIQELVDYVNARQKQGIYEEYEDIRRENPVGTFHCSMSPGNLEKNRYGDVPCLDQTRVKLTKRSGHTQTDYINASFMDGYKQKNAYIGTQGPLENTYRDFWLMVWEQKVLVIVMTTRFEEGGRRKCGQYWPLEKDSRIRFGFLTVTNLGVENMNHYKKTTLEIHNTEERQKRQVTHFQFLSWPDYGVPSSAASLIDFLRVVRNQQSLAVSNMGARSKGQCPEPPIVVHCSAGIGRTGTFCSLDICLAQLEELGTLNVFQTVSRMRTQRAFSIQTPEQYYFCYKAILEFAEKEGMVSSGQNLLAVESQEGHHHHHH	soluble
KVKELNLHELCAVCLEDFKPRDELGICPCKHAFHRKCLIKWLEVRKVCPLCNMPVLQLAQL	soluble
MGSDKIHHHHHHMKYALGNILYYWPKEDVEAFYQAAVNSSADIVYLGETVCSKRRLMKVADWFNVAREVANSGKQVVISTLALLQAPSELTELRRYVENGEFLLEANDLGAVNIAAERNLPFVAGHALNCYNAYTLRVLHKQGMVRWCMPVELSRDWLQNLLNQCEELGFRHQFEVEVLSYGHLPLAYSARCFTARSEDRPKDECETCCLSYPQGRKMLSQENQQVFVLNGIQTQSGYCYNLGNELTSMRDLVDIVRLSPNDITTPAMLDTFRANEQGNMPLTLQNQADCNGYWRRVAGLELVQ	not soluble
QSSAQRHADLNTLIGHTEPVANIAQDLYSSLSLADTEASASFVRGTNDNYVEYIQKAALLVTQTDGDIANIATQLPVYTGLVETARANNRQGHPVGVAYMSEASTLMQESILPAASQLYLNAAEQVSTAQRNLARPQ	not soluble
MGSDKIHHHHHHMTEIQTIRKKVEQQITSLQNETDEIAEFNQAKVLDAFQENKVSDFHFNPSTGYGYDDEGRDTLERVYASVFKTEAALVRPQIISGTHAISTVLFGILRPGDELLYITGEPYDTLEEIVGIRSEGQGSLKDFQIGYDAVPLLPNGEIDYPAVSKKISANTKMIGIQRSRGYADRPSFTIEKIKEMVTFVKNINPNIIVFVDNCYGEFVERIEPTEVGADIIAGSLIKNPGGGLAKTGGYIAGRNTLVDLCGYRLTTPGIGREAGASLYSLLEMYQGFFLAPHVTAQAIKGARFTAAMLAEFGVEADPLWDAKRTDLIQSVSFHSKDKMIAFAQAIQAASPVNAHVLPIGAYMPGYEDDVIMAAGTFIQGASLELTADGPIREPYQLYVQGGLTYEHVKIAVTRAIENSL	not soluble
MDCYVGATTGALKGAILKENTFQNLNEIKSLDPKSDEITSMIWNDEQQTEILIARVNRDLQLLGIEENELVSILTVTGGTGPIKGLHKADEKIVTCVESGELQIWNDKSEILSEWKTGPGVAVMRGSTEKPEIVTGGMKNLLKTWNLETGQQTWSAKNVPPDMLGLEIPIMITDARFIPGQNTILEATKLHEMRLYDPRAQRRPVKKIPFMENPIMCTSLTYKTNQILAANSIGEMGLFDLRSKVHPMCKFKGQAGSIRSITAHPTLPLAASVGIDRFLRVHDLQSRKLIHKIYCKTRLNRVLLRDNLSILNDKKPASKKEINEDETEYGNMTKDGYRSENEDDEDDDDVIEEDDVWGVMEPVKRAKKSSDDDVEEIQITSETIAVPSKNSQKLKRKNVLEADEIKEEEGDSDEAEVKKTTKKVLKKKKRV	not soluble
MGSDKIHHHHHHMALWQAKQVCPEIIFVPPRMDLYLRFSQMAREIYSEYTDKIEPYGIDEAWLDVSDSGNLKGSGMTIAREISHRIKYELGVTVSIGISWNKIYAKLGSDYKKPDAITEFNRENYKDRIWQLPASDLLYVGRQTNKKLQKLGIRTIGQLAESDEKLLESHFGKIGNVLWAFANGWDEDPVCKEGYEAPVKSIGNSTTTPRDLENDLDVWIIQIALAESVAARLRKHGFKCKTVEITVRDNGLYSFSRQIHLRQPTNITNEIVTAAFQLFKDNYKWEHPIRSLGIRAADLVLDDIPVQLDLFGNQEKKEKLEKLDRTVDEIRRRFGYFSIQRAAMYQDKVLSHLDAGTHTVHPHSYFHG	not soluble
MNSIQIADETYVAADAARVSAAVADRCSWRRWWPDLRLQVTEDRADKGIRWTVTGALTGTMEIWLEPSMDGVLLHYFLHAEPTGVAAWQLARMNLARMTHHRRVAGKKMAFEVKTVLERSRPIGVSPVT	not soluble
VTAHSIARRFGAPIETLARAADRIGEGDFDVTLPMTNVAEVGQLTRRFGLMAEALRQYRKTSVEEVLSGERRLQAVLDSIDDGLVIFDNQGRIEHANPVAIRQLFVSNDPHGKRIDEILSDVDVQEAVEKALLGEVQDEAMPDLVVDVAGESRLLAWSLYPVTHPGGHSVGAVLVVRDVTEQRAFERVRSEFVLRASHELRTPVTGMQMAFSLLRERLDFPAESREADLIQTVDEEMSRLVLLINDLLNFSRYQTGMQKLELASCDLVDLLTQAQQRFIPKGEARRVSLQLELGDELPRLQLDRLQIERVIDNLLENALRHSSEGGQIHLQARRQGDRVLIAVEDNGEGIPFSQQGRIFEPFVQVGRKKGGAGLGLALCKEIIQLHGGRIAVRSQPGQGARFYMLLP	not soluble
MDTIAFAYMGGKEYEWLFFEVYDRVRRFYRDVRLPINIVYAGKIILPPGTLIRVETASGFVNMYSFEAVVEALYGKLVEMRDDVNDDSITKIFGITTFPIGSRDRYFDIYKKYLGIQVNVGDYHVLALSIKPFFTENKYLFIERVFKGVLHEIGHLYGLSHCHEDCVMNPPKDIKDWDLRTPTYCNTCLRKLKNKEELMPKLQLLEHHHHHH	soluble
MGSDKIHHHHHHMAIKATDLFKLVSLSYPSATDDGYFVQENRISEADNTYYQRICFVNHRGGTIAYGFDQKHDRHPLLSPDQQWLAFLSQASDKTTQVFLQAVNGGTAKQFSAEKEGVSYFGWQADSQALFIQTTVGAKPKKTDKQWPQPVTVSRVPYKLNGVGLLPEHVAYELRVQRLRQKTSRLVMGREHEFEVGAISPDGQTLAFTAERLPDDPNDFSQATYLLNLADQQVTMVNDQLPQAALSPEAFSADGKQLLLVGSDNHLPNVSQSHLWHYDLATKTLQDVADDIDFDIPGHVNGDFQQDLSEKVADFATADYYLTIGFDHGKTSLYAGGPDEQLTPLIGGRRHVTDYALTPDHHGVVFTESTMTVPSRLSYFDLATEEEHVIYDPNRRVTRDMGLVTPQTFNFQRDGFEIEGWYFPPQQATASHPAILYVHGGPAVGYGYTFFHEMQFLAA	not soluble
GSRRASVGSHEVEKSGLLNMTKIAQGGRKLRKNWGPSWVVLTGNSLVFYREPPPTAPSSGWGPAGSRPESSVDLRGAALAHGRHLSSRRNVLHIRTIPGHEFLLQSDHETELRAWHRALRTVIERLVRW	soluble
MATAVVQRKGYDNVELSLSEDDDPVKEKKKSKGNEKKSSTESKSKESKETSKEEDLAQKKFLMTQKTQSMTEDEKEVKPKAPESQKPKKNSAEESNEKIKKEGSVKVETVASKVKPASSRVPPIASTPGKGSVDGEQKKKSTGCCIIL	soluble
MIKHESSQPLRVAVAQCRIDWEDKHANLRRMERLAEETAGMADVLFFPEMMTTGFSMNVQALAEPFEEGETIMSLKRVTARHGLALSATMAVRENGKFYNRAYFVTPEGEVFHQDKRHLFRVGGEHEVMTPAQERRIFNYRGWKIFIIPCYDLRFPVWCTNTDLEYDLLVCMANWPEPRRAVWQTLLQARAMENYAYVCGINRVGEDGIGLRYTGDSAILSPRGEYLATCAEGEEKVLYHTLDKGAMQRFRDKFPAWMDMDSFVINYDTDLHP	not soluble
MPKLILLGDSTLDNFNWVPNKATVTDHLRRQLPKMEILNFAVDGFTTDSILYGEYKDCAVTSSQHTHKYFEPLKALENEQDVEHIVLSVLGNDFRIQLSKLIFMAPEERPKAIEQLINHIIKNYIQVVKEIRKVQPNAKLSIVLQYTPYVENDPYLIYFLMDKLFHHGTVSHGFLSYLQIMYYSIFGLNSKHEQQALNLLHKLMAKVYRNVFNELGDNSLAIIDLASSFDYRNSKLYKAQIEPSDEGGKLIASLITHTITHHDFQNESMLYAKPPLQPNPKILAVPLTKLKKDWFPQQIYVTQEQAITAFKQAYLLQLNKDRQSYLGLYSFFARSNVDFEHATLEKLIVHAQNYSTKKTGYRTLKVMQNLGWLTEQGNIKEESGIVRLLKN	not soluble
MGSDKIHHHHHHMRIEVWGGAGEYGRSCYFVKNKETKILFDCGINRSYEDSYPKIEREVVPFLDAVFLSHIHEDHTMGLPLLAKYGYKKKIWTTRYTKEQLPAYYEKWRNYNLAQGWHVPYTDQHVKDLNYVYIDEISNPNEWVQITPTLRFQWGYSGHVLGAVWFLLDMSHTYVFYSGDYSAESNILRANLPEKLHGDIKVAIVDAAYHTDDVSQHERINELCTEIERAAGNKGITLLPLPPLGRAQDIVLYLYKKYKELPIIVDQEILDGFQQMFAYKDWIKNNEELEELMESLKRNIIVMDDDSGTQHSYGIVVMSDANMQTKRAQLYYEQLRHDERNSIIFTGHIAKGSFAEKVLKERVGKECRVKRVPYKVHQSIRDVKEMLNTLSPEHTVLVHALKEDTDRLQKKLSTAGYENVYSLTMERIEVI	not soluble
HGNQLTAYTLRLGDNCLVLSQRLGEWCGHAPELEIDLALANIGLDLLGQARNFLSYAAELAGEGDEDTLAFTRDERQFSNLLLVEQPNGNFADTIARQYFIDAWHVALFTRLMESRDPQLAAISAKAIKEARYHLRFSRGWLERLGNGTDVSGQKMQQAINKLWRFTAELFDADEIDIALSEEGIAVDPRTLRAAWEAEVFAGINEATLNVPQEQAYRTGGKKGLHTEHLGPMLAEMQYLQRVLPGQQW	soluble
MGSDKIHHHHHHMDFIEVYPNAIPDELCDRLIETVNTHPGVIDGITGHGVDLEKKISRDITMDNFQELLPLRNELLNYTLKHSAQYFEKYALGLMGAVAVTLADEQGKPQTLTPDNFDTLGRHRVQPLVQYLYRSGTINIQHYQQGKGGYPHWHSEQFPQMGHNEALHRVVLYMFYLNDVEEGGETEFFYQQRKIKPKKGTMVIAPAGFTHSHRGNMPISGDKYIATSWVMFNRAEKLYAPVG	not soluble
MTHPRDSIALTSDSLVLRFLSESGIPISDNNKVRLLKSGREKFIDLFSAIRDAKHHIHLEYFNFRNDSIANALFDLLAEKVKEGVEVRAMFDAFGNWSNNKPLKKRHLKKIREQGIEIVKFDPFTFPYINHAAHRDHRKIAVIDGEVAYTGGMNIADYYINGLPKIGTWRDMHMRIEGDAVNDLQEIFLTIWNKETKQNIGGEAYFPKHKEQSDSTNVVVAIVDRTPKKNSRMLSHA	not soluble
MKPRDINKLIASKIFGYEIKDDNIIKDGRYRLGIPLYSQNIESAWQVVEKLEYDVKVTKTDLKPKYQVHVFVPGGVKMVFAETAPMAICKGALASVDIELQD	soluble
EDPFQPEIKVRCVCGNSLETDSMIQVIWDELTAFIPCEDPRCHVWQHVGCVILPDKPMDGNPPLPESFYCEICRLT	soluble
GPLGSAAAATPAVRTVPQYKYAAGVRNPQQHLNAQPQVTMQQPAVHVQGQEPLTASMLASAPPQEQKQMLGERLFPLIQAMHPTLAGKITGMLLEIDNSELLHMLESPESLRSKVDEAVAVLQAHQAKEAAQKAVNSATGVPTV	soluble
MGSDKIHHHHHHTEETAKVVPMAVITPAINQLTDQEKAEGWALLFDGKTTKGWRGAHKDAFPDHGWMVKDGELIVQKSDGSESTNGGDIVTEGEYSAFEFSVDFKITEGANSGIKYFVTEQEKQKGSAYGLEFQLLDDAKHPDAKLYTTFPGSRTLGSLYDLKKSENIHFNGVGEWNTAVVKVFPNNHVEHWLNGVKVLEYERGSKEFRDLVKGSKYADPSYNAGGAFGEAPKGHILLQDHGDEVAFRNIKVKELK	not soluble
